The Human Domainome abundance scans (Beltran et al. 2025)
± gives the uncertainty stated by the source.

B1: POU domain, class 4, transcription factor 3, residues 185 to 256; numbered along this chain, Q15319 (parent)
chain: RELEAFAERFKQRRIKLGVTQADVGAALANLKIPGVGSLSQSTICRFESLTLSHNNMIALKPVLQAWLEEAE
B2: Cullin-9, residues 2234 to 2275; numbered along this chain, Q8IWT3 (parent)
chain: KRCPSCQAPIEKNEGCLHMTCAKCNHGFCWRCLKSWKPNHKD

Variants of: B1
Experiment: abundance fitness (aPCA) (normalised: wild type 0, dead -1); higher = more abundant; growth selection in yeast, the domain comes from the species named
Settings: Homo sapiens

V36I and Q12D are within error of each other in abundance fitness: 0.117 ± 0.097 for the first, 0.012 ± 0.17 for the second.

First: I33Y
Second: I33S
The abundance fitness of the first is higher: -0.105 ± 0.12 for the first, -0.764 ± 0.19 for the second.

I33M and D23G are within error of each other in abundance fitness: -0.283 ± 0.1 for the first, -0.246 ± 0.49 for the second.

G18N and G18D are within error of each other in abundance fitness: -0.205 ± 0.33 for the first, -0.463 ± 0.21 for the second.

First: G18F
Second: L31Q
The abundance fitness of the first is lower: -0.784 ± 0.14 for the first, -0.202 ± 0.28 for the second.

L31Y and L31A are within error of each other in abundance fitness: -0.228 ± 0.29 for the first, 0.204 ± 0.23 for the second.

L31W and K11T are within error of each other in abundance fitness: -0.008 ± 0.2 for the first, -0.276 ± 0.097 for the second.

Compared with K11E, K11L is higher in abundance fitness: -0.945 ± 0.3 for the first, -0.449 ± 0.037 for the second.

With K11Q the abundance fitness was -0.136 ± 0.091.

Variants of: B2
Experiment: as above
Settings: Homo sapiens

C6P and D42V are within error of each other in abundance fitness: -0.639 ± 0.15 for the first, -0.359 ± 0.16 for the second.

D42K and L17D are within error of each other in abundance fitness: -0.487 ± 0.37 for the first, -0.006 ± 0.14 for the second.

L17S and E11G are within error of each other in abundance fitness: -0.186 ± 0.12 for the first, -0.34 ± 0.079 for the second.

E11T and K12S are within error of each other in abundance fitness: -0.159 ± 0.15 for the first, -0.112 ± 0.085 for the second.

Going from K12D to K12Q, the abundance fitness rises from -0.248 ± 0.12 to 0.008 ± 0.091.

Compared with K12I, K12G is higher in abundance fitness: -0.492 ± 0.23 for the first, 0.268 ± 0.071 for the second.

First: K12A
Second: K12M
The abundance fitness of the first is higher: 0.126 ± 0.081 for the first, -0.22 ± 0.12 for the second.

Going from K12V to T20C, the abundance fitness falls from -0.2 ± 0.089 to -0.447 ± 0.13.

T20P and T20L are within error of each other in abundance fitness: -0.103 ± 0.1 for the first, -0.099 ± 0.097 for the second.

T20Q and T20H are within error of each other in abundance fitness: -0.029 ± 0.1 for the first, -0.154 ± 0.15 for the second.

T20W and T20G are within error of each other in abundance fitness: -0.172 ± 0.093 for the first, -0.288 ± 0.083 for the second.

Compared with K37L, K37S is higher in abundance fitness: -0.143 ± 0.096 for the first, 0.234 ± 0.099 for the second.

K37E and K37V are within error of each other in abundance fitness: 0.219 ± 0.089 for the first, 0.078 ± 0.087 for the second.

K37D and K37Q are within error of each other in abundance fitness: 0.323 ± 0.11 for the first, 0.121 ± 0.1 for the second.

N13W and N13C are within error of each other in abundance fitness: 0 ± 0.1 for the first, -0.101 ± 0.15 for the second.

N13T and N13L are within error of each other in abundance fitness: 0.185 ± 0.1 for the first, 0.229 ± 0.092 for the second.

H18E and H18Q are within error of each other in abundance fitness: 0.019 ± 0.094 for the first, 0.106 ± 0.1 for the second.

H18Y and H18F are within error of each other in abundance fitness: -0.503 ± 0.16 for the first, -0.058 ± 0.29 for the second.

H18P and C3F are within error of each other in abundance fitness: -0.427 ± 0.098 for the first, -0.416 ± 0.2 for the second.

C16T and C16V are within error of each other in abundance fitness: 0.471 ± 0.11 for the first, 0.449 ± 0.085 for the second.

First: C16Q
Second: C16M
The abundance fitness of the first is higher: 0.416 ± 0.091 for the first, 0.202 ± 0.11 for the second.

Going from C16R to K23I, the abundance fitness falls from 0.227 ± 0.073 to -0.437 ± 0.14.

K23F and K23H are within error of each other in abundance fitness: 0.02 ± 0.22 for the first, -0.223 ± 0.19 for the second.

Compared with K23A, C24L is lower in abundance fitness: -0.102 ± 0.085 for the first, -0.454 ± 0.093 for the second.

Compared with C24S, C24E is higher in abundance fitness: -0.384 ± 0.12 for the first, -0.129 ± 0.088 for the second.

E14W and L33W are within error of each other in abundance fitness: -0.362 ± 0.14 for the first, -0.48 ± 0.12 for the second.

L33T and L33H are within error of each other in abundance fitness: -0.29 ± 0.099 for the first, -0.321 ± 0.2 for the second.

Going from F28A to W30G, the abundance fitness rises from -0.173 ± 0.084 to 0.162 ± 0.07.

Compared with W30V, K1T is lower in abundance fitness: -0.056 ± 0.085 for the first, -0.377 ± 0.19 for the second.

Going from K1M to K1F, the abundance fitness falls from -0.162 ± 0.17 to -0.735 ± 0.39.

K1R and K1S are within error of each other in abundance fitness: -0.948 ± 0.12 for the first, -0.756 ± 0.15 for the second.

Going from K1Q to A8R, the abundance fitness rises from -0.691 ± 0.4 to -0.153 ± 0.072.

A8V and A8I are within error of each other in abundance fitness: -0.231 ± 0.083 for the first, -0.341 ± 0.27 for the second.

Going from I10P to I10E, the abundance fitness rises from -0.536 ± 0.17 to 0.059 ± 0.13.

Going from I10W to H26Q, the abundance fitness rises from -0.555 ± 0.1 to -0.17 ± 0.11.

H26S and W36G are within error of each other in abundance fitness: 0.055 ± 0.12 for the first, -0.026 ± 0.072 for the second.

W36S and W36P are within error of each other in abundance fitness: 0.118 ± 0.088 for the first, 0.067 ± 0.12 for the second.

W36A and N39T are within error of each other in abundance fitness: 0.029 ± 0.078 for the first, 0.16 ± 0.096 for the second.

Compared with N39W, N39A is higher in abundance fitness: -0.176 ± 0.087 for the first, 0.017 ± 0.08 for the second.

N25M and N25F are within error of each other in abundance fitness: -0.06 ± 0.14 for the first, -0.242 ± 0.16 for the second.

N25T and A22M are within error of each other in abundance fitness: -0.106 ± 0.11 for the first, 0.082 ± 0.16 for the second.

First: A22Y
Second: A22K
The abundance fitness of the first is higher: 0.082 ± 0.21 for the first, -0.333 ± 0.17 for the second.

A22L and A22R are within error of each other in abundance fitness: -0.282 ± 0.13 for the first, -0.242 ± 0.1 for the second.

Going from A22V to K41C, the abundance fitness rises from -0.306 ± 0.12 to 0.578 ± 0.28.

K41V and K41N are within error of each other in abundance fitness: 0.255 ± 0.1 for the first, -0.132 ± 0.37 for the second.

K34P and K34M are within error of each other in abundance fitness: -0.363 ± 0.12 for the first, -0.374 ± 0.13 for the second.

K34D and K34Q are within error of each other in abundance fitness: -0.376 ± 0.24 for the first, -0.128 ± 0.18 for the second.

Going from K34E to K34S, the abundance fitness falls from 0.045 ± 0.092 to -0.18 ± 0.094.

G15R and G15K are within error of each other in abundance fitness: -0.096 ± 0.092 for the first, -0.294 ± 0.15 for the second.

G15Q and G15M are within error of each other in abundance fitness: -0.777 ± 0.21 for the first, -0.576 ± 0.17 for the second.

G15S and G15H are within error of each other in abundance fitness: -0.362 ± 0.11 for the first, -0.492 ± 0.17 for the second.

H40V and H40P are within error of each other in abundance fitness: 0.006 ± 0.086 for the first, -0.091 ± 0.11 for the second.

H40D and P4C are within error of each other in abundance fitness: 0.111 ± 0.25 for the first, 0.182 ± 0.12 for the second.

P4N and P4D are within error of each other in abundance fitness: -1.15 ± 0.28 for the first, -1.47 ± 0.39 for the second.

Going from P4Y to P4W, the abundance fitness falls from 0.231 ± 0.17 to -0.147 ± 0.092.

Compared with P4R, P4K is lower in abundance fitness: -0.41 ± 0.089 for the first, -1.44 ± 0.33 for the second.

M19H and M19N are within error of each other in abundance fitness: -0.405 ± 0.21 for the first, -0.161 ± 0.18 for the second.

Compared with M19I, P9K is lower in abundance fitness: -0.008 ± 0.19 for the first, -0.349 ± 0.15 for the second.

P9T and G27P are within error of each other in abundance fitness: -0.107 ± 0.12 for the first, -0.129 ± 0.15 for the second.

First: G27L
Second: G27T
The abundance fitness of the first is lower: -0.457 ± 0.099 for the first, 0.326 ± 0.11 for the second.

R31N and R31C are within error of each other in abundance fitness: 0.17 ± 0.17 for the first, 0.055 ± 0.13 for the second.

R31G and R31A are within error of each other in abundance fitness: 0.128 ± 0.081 for the first, -0.026 ± 0.076 for the second.

Compared with R31H, C29M is lower in abundance fitness: 0.078 ± 0.15 for the first, -0.969 ± 0.22 for the second.

First: C29K
Second: P38F
The abundance fitness of the first is lower: -0.632 ± 0.17 for the first, 0.042 ± 0.26 for the second.

Going from P38M to P38E, the abundance fitness rises from -0.364 ± 0.2 to 0.184 ± 0.11.

C21P and C21W are within error of each other in abundance fitness: -0.612 ± 0.12 for the first, -0.823 ± 0.12 for the second.

C21V and C21I are within error of each other in abundance fitness: -0.677 ± 0.095 for the first, -0.968 ± 0.25 for the second.

R2T and R2Y are within error of each other in abundance fitness: 0.147 ± 0.1 for the first, 0.242 ± 0.13 for the second.

First: R2G
Second: R2N
The abundance fitness of the first is lower: 0.204 ± 0.079 for the first, 0.571 ± 0.14 for the second.

Going from S5E to S5V, the abundance fitness falls from 0.496 ± 0.091 to 0.259 ± 0.078.

S5Q and S5A are within error of each other in abundance fitness: 0.31 ± 0.095 for the first, 0.462 ± 0.074 for the second.

Going from S5T to C32E, the abundance fitness falls from 0.224 ± 0.087 to -0.117 ± 0.094.

Compared with C32K, S35A is higher in abundance fitness: -0.677 ± 0.18 for the first, 0.049 ± 0.083 for the second.

First: S35I
Second: S35M
The abundance fitness of the first is lower: -0.438 ± 0.3 for the first, 0.037 ± 0.16 for the second.

Compared with Q7D, Q7A is lower in abundance fitness: 0.538 ± 0.24 for the first, -0.064 ± 0.15 for the second.
